Measured values reported in publication PMC11724271.
Several values for one entry are separate records, joined by “and”; a condition that tells them apart may be missing. Equal values may be shown once.

Biological target: CdiA-CT^EC536_H178A (catalytically inactive C-terminal toxin domain of CdiA from uropathogenic E. coli 536) (uropathogenic Escherichia coli 536)
Assay: cryo-EM structure

B1: O-acetylserine sulfhydrylase A (CysK) (enzyme)
chain: MSKIFEDNSLTIGHTPLVRLNRIGNGRILAKVESRNPSFSVKCRIGANMIWDAEKRGVLKPGVELVEPTSGNTGIALAYVAAARGYKLTLTMPETMSIERRKLLKALGANLVLTEGAKGMKGAIQKAEEIVASNPEKYLLLQQFSNPANPEIHEKTTGPEIWEDTDGQVDVFIAGVGTGGTLTGVSRYIKGTKGKTDLISVAVEPTDSPVIAQALAGEEIKPGPHKIQGIGAGFIPANLDLKLVDKVIGITNEEAISTARRLMEEEGILAGISSGAAVAAALKLQEDESFTNKNIVVILPSSGERYLSTALFADLFTEKELQQ
modifications: PLP (N'-pyridoxyl-lysine-5'-monophosphate); position not given
- stoichiometry N (CysK per CdiA-CT): 2 and 1
